Experiment [1] deals with T1, HPV45型衣壳蛋白L1病毒样颗粒(VLP)抗原 (HPV 45型) (UniProt P36741).
T1 sequence: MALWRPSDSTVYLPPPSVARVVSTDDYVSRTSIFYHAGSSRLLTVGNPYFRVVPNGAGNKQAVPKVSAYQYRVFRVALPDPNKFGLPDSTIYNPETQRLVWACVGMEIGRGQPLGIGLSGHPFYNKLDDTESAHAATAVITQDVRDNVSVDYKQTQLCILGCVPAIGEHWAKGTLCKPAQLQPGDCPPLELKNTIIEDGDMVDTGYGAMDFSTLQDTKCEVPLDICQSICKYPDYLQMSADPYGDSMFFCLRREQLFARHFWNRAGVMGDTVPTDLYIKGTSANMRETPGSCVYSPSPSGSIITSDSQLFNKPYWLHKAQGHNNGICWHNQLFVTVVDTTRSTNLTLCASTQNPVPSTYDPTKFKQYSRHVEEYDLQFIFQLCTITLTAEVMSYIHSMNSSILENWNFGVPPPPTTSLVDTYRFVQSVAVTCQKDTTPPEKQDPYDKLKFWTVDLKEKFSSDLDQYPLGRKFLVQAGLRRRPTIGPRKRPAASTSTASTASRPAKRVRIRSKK
The experiment can be described thus: sandwich ELISA, rabbit pAb R163 capture 1:500, mAb 1:20000; antigen 13.3 ug/ml, 2.5-fold series, step 1. On the technique in general: In an ELISA, binding on a coated surface is turned into a signal by an enzyme label.

In experiment [2] the target is T1, HPV45型衣壳蛋白L1病毒样颗粒(VLP)抗原 (HPV 45型). Briefly: sandwich ELISA, rabbit pAb R163 capture 1:500, mAb 1:20000; antigen 13.3 ug/ml, 2.5-fold series, step 5.
Experiment [3] has the same target. Briefly: sandwich ELISA, rabbit pAb R163 capture 1:500, mAb 1:20000; antigen 13.3 ug/ml, 2.5-fold series, step 10.
For experiment [4] the target is unchanged. Briefly: sandwich ELISA, rabbit pAb R163 capture 1:500, mAb 1:20000; antigen 13.3 ug/ml, 2.5-fold series, step 3.
In experiment [5] the target is T2, HPV 58 VLP抗原 (HPV 58, UniProt P26535 27-524).
T2 sequence: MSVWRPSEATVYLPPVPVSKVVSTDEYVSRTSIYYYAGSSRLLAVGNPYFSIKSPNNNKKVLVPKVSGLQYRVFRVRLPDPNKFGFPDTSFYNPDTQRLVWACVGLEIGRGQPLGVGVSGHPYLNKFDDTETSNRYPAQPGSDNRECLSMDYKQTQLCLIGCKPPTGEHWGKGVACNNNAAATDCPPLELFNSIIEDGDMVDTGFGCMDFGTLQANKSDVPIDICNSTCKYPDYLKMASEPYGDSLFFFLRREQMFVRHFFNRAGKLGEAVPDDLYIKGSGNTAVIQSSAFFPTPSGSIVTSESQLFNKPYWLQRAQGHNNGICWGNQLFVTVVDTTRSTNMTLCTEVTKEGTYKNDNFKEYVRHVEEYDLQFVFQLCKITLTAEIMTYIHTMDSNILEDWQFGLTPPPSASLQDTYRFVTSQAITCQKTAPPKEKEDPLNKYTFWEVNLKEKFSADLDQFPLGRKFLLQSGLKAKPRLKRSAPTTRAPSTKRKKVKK
The experiment can be described thus: direct ELISA on coated VLP antigens.

Experiment [6] concerns the target T3, HPV 18 VLP抗原 (HPV 18, UniProt P06794 62-568).
T3 sequence: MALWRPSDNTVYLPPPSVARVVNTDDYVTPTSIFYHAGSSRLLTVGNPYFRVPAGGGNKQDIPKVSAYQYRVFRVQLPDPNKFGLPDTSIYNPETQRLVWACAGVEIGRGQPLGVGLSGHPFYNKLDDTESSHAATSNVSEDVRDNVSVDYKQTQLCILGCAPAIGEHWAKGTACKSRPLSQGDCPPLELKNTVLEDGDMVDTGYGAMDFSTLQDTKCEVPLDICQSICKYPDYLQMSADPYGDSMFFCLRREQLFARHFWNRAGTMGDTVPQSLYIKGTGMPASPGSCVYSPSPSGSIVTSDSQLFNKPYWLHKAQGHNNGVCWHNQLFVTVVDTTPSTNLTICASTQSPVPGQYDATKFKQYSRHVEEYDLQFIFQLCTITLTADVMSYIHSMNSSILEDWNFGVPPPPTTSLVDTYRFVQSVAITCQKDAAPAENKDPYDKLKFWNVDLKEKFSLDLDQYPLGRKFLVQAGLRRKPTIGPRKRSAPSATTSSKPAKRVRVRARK
The experiment can be described thus: direct ELISA on coated VLP antigens.

Experiment [7] concerns the target T4, HPV 52 VLP抗原 (HPV 52, UniProt Q05138 27-529).
T4 sequence: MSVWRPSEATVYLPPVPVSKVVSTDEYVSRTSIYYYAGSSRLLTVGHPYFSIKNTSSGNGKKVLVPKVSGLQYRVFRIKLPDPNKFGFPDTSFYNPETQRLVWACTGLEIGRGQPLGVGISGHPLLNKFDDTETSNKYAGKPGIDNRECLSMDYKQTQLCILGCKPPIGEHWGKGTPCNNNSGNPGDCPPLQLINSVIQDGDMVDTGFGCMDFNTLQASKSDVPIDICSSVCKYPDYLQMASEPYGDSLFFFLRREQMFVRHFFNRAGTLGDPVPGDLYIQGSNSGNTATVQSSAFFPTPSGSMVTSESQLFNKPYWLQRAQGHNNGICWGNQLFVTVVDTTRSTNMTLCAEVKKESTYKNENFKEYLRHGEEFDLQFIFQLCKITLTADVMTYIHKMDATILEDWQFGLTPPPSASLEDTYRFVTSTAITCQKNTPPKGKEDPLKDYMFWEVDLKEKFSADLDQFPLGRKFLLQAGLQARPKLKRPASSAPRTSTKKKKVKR
Briefly: direct ELISA on coated VLP antigens.

Values joined by “and” are separate entries in the source; they are usually repeats but may differ in a detail not shown here. Equal entries are not always repeated.

B1: 杂交瘤细胞株7A5(CGMCC NO:45706)分泌的鼠源单克隆抗体 (antibody, V domains shown)
VH: QPGAELVKPGASVKLSCKASGYTFTSYWMHWVKQRPGQGLEWIGEINPSNGHTNYNEKFKSKATLTVDKSSSTAYMQLSSLTSEDSAVYYCAPCYGSSYDYYAMDYWGQGTSVTVSS
VL: DIVLTQSPASLAVSLGQRATISCRASQSVSTSSYSYMHWYQQKPGQPPKLLIKYASNLESGVPARFSGSGSGTDFTLNIHPVEEEDTATYYCQHSWEIPYTFGGGTKLEIK
notes: also called 鼠单抗7A5; 抗体7A5
For the molecule B1, the OD is 3.12 OD in experiment [1]; 1.54 OD and 1.56 OD in experiment [2]; 0.068 OD and 0.072 OD in experiment [3]; 2.9 OD and 2.78 OD in experiment [4]. Also, the binding result in experiment [5], in experiment [6] and in experiment [7] was “no binding” each time.

B2: 杂交瘤细胞株11G1(CGMCC NO:45707)分泌的鼠源单克隆抗体 (antibody, V domains shown)
VH: QVQLQQPGAELVKPGASVKLSCKASGYTFTSYWMHWVKRRPGQGLEWIGEINPSNGLTNYNEKFKSKGTLTVDKSSSAAFMHLSSLTSEDSAVYYCARFHGSDLYAMDYWGQGTSVTVSS
VL: B1 VL
notes: also called 鼠单抗11G1; 抗体11G1
As to B2, the OD is 3.1 OD and 3.01 OD in experiment [1]; 0.922 OD and 1.02 OD in experiment [2]; 0.062 OD and 0.051 OD in experiment [3]; 2.67 OD and 2.65 OD in experiment [4]. The binding result in experiment [5], in experiment [6] and in experiment [7] was “no binding” in each case.

Source of the values: patent publication CN117466995A (YIDAO BIOTECHNOLOGY SUZHOU CO LTD, dated 2024).
